Experimental data from patent publication US20170183420.

Assays:
Experiment in all cases: cell_activity
[1] = system: ZFN 20190 (CTLA-4) (synthetic); settings: pair 20190/20189, Cel-I, K562
[2] = system: ZFN 20185 (CTLA-4) (synthetic); settings: pair 20186/20185, Cel-I, K562
TALEN 101627 (synthetic) = settings: pair 101627/101626, K562
[3] = system: ZFN 20186 (CTLA-4) (synthetic); settings: pair 20186/20185, Cel-I, K562
TALEN 101618 (synthetic) = settings: pair 101621/101618, K562; 14.7 with 101622, 6.8 with 101623
TALEN 101626 (synthetic) = settings: pair 101627/101626, K562
[4] = system: ZFN 25029 (PD1) (synthetic); settings: pair 12942/25029, Cel-I, K562; also active in PBMC (FIG. 2)
[5] = system: ZFN 12942 (PD1) (synthetic); settings: pair 12942/25029, Cel-I, K562; also active in PBMC (FIG. 2)
TALEN 101621 (synthetic) = settings: pair 101621/101618, K562; 18.1 with 101619, 0 with 101620
TALEN 101633 (synthetic) = settings: pair 101633/101632, K562
TALEN 101641 (synthetic) = settings: pair 101641/101640, K562; RVD 16 printed ND
[6] = system: ZFN 20189 (CTLA-4) (synthetic); settings: pair 20190/20189, Cel-I, K562
TALEN 101640 (synthetic) = settings: pair 101641/101640, K562
TALEN 101632 (synthetic) = settings: pair 101633/101632, K562
TALEN 101620 (synthetic) = settings: pair 101623/101620, K562; 10.6 with 101622, 0 with 101621
TALEN 101624 (synthetic) = settings: pair 101625/101624, K562

“ACTACCTGGGCATAGGCAACGGAACCCA (double strand) [CTLA-4 site 20190]” showed an activity [1] of 1.8 % indels.
With “ACCCGGACCTCAGTGGCTTTGCCTGGAG (double strand) [CTLA-4 site 20185]” the activity [2] was 3.3 % indels.
“GTGAAGGTGGCGTTGTCCCCT (double strand) [PD1 site 101627]” gave an activity (TALEN 101627 (synthetic)) of 12.5 % NHEJ.
“ACAGTGCTTCGGCAGGCTGACAGCCAGG (double strand) [CTLA-4 site 20186]” was tested, and the activity [3] was 3.3 % indels.
“GTGCTCCAGGCATGCAGATCC (double strand) [PD1 site 101618]” gave an activity (TALEN 101618 (synthetic)) of 23.5 % NHEJ.
“CTTCTCCCCAGCCCTGCTCGT (double strand) [PD1 site 101626]” gave an activity (TALEN 101626 (synthetic)) of 12.5 % NHEJ.
For “CAGTCGTCTGGGCGGTGCT (double strand) [PD1 site 25029]”, the activity [4] was 14.7 % NHEJ.
With “CCAGGGCGCCTGTGGGATCTGCATGCCT (double strand) [PD1 site 12942]” the activity [5] was 14.7 % NHEJ.
“GTAGCACCGCCCAGACGACTG (double strand) [PD1 site 101621]” was tested, and the activity (TALEN 101621 (synthetic)) was 23.5 % NHEJ.
“CTCTCTTTGATCTGCGCCTTG (double strand) [PD1 site 101633/101641]” showed an activity (TALEN 101633 (synthetic)) of 14.7 % NHEJ and an activity (TALEN 101641 (synthetic)) of 23 % NHEJ.
“TGGCGGTGGGTACATGAGCTCCACCTTG (double strand) [CTLA-4 site 20189]” gave an activity [6] of 1.8 % indels.
“CTACCTCTGTGGGGCCATCTC (double strand) [PD1 site 101632/101640]” showed an activity (TALEN 101640 (synthetic)) of 23 % NHEJ and an activity (TALEN 101632 (synthetic)) of 14.7 % NHEJ.
With “ATGCAGATCCCACAGGCGC (double strand) [PD1 site 101620/101624]” the activity (TALEN 101620 (synthetic)) was 11.6 % NHEJ and the activity (TALEN 101624 (synthetic)) was 10.1 % NHEJ.
